Test results reported in patent US20220211812A1 (Bristol-Myers Squibb, published 2022).
Ends that are not written are not given here.

T1: human RXFP1 receptor (human, UniProt Q9HBX9 1-757)
T1 sequence (looked up): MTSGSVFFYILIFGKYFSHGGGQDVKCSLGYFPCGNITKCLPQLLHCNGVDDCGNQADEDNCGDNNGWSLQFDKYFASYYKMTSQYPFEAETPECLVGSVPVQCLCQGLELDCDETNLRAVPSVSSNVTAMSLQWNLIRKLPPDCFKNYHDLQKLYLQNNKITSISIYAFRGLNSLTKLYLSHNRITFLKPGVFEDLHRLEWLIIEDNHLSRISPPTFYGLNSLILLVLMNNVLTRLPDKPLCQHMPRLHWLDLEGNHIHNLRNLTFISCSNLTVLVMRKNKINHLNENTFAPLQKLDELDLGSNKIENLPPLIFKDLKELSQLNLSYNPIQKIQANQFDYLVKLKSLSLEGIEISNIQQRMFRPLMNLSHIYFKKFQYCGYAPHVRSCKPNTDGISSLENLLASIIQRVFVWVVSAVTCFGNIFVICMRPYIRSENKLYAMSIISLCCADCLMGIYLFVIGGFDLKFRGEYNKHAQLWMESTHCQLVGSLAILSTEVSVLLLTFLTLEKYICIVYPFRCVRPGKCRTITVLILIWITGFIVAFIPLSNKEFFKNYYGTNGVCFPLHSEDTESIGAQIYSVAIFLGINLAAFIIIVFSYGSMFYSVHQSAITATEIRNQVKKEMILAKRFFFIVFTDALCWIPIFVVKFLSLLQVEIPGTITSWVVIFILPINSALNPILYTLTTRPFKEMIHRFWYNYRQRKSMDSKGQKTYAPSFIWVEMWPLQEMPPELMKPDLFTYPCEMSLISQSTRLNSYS


target: T1, human RXFP1 receptor; experiment: cell-based or functional assay

Binder	hRXFP1/CHO-K1 cAMP EC50 (nM, avg)
AQ1-EESGGSGG-Glu^γ-C13-COOH (ligand, not fully specified; Glu^γ bonded by amide to fatty acid -C13-COOH; oxime-linked to pAcF of the A chain; pAcF (para-acetyl-L-phenylalanine) at position 1, oxime-linked to PK enhancer EESGGSGG-Glu^γ-C13-COOH) chain 1: XLYSALANKCCHVGCTKRSLARFC chain 2: ASWMEEVIKLCGRELVRAQIAICGMSTWS peptide: EESGGSGGE	0.83 nM
AQ1-KKSGGSGG-Glu^α-C13-COOH (ligand, not fully specified; Glu^α linked to fatty acid -C13-COOH; oxime-linked to pAcF of the A chain; pAcF (para-acetyl-L-phenylalanine) at position 1, oxime-linked to PK enhancer KKSGGSGG-Glu^α-C13-COOH) chain 1: XLYSALANKCCHVGCTKRSLARFC chain 2: ASWMEEVIKLCGRELVRAQIAICGMSTWS peptide: KKSGGSGGE	0.27 nM
AQ1-EEEGGG-Glu^γ-C13-COOH (ligand, not fully specified; Glu^γ bonded by amide to fatty acid -C13-COOH; oxime-linked to pAcF of the A chain; pAcF (para-acetyl-L-phenylalanine) at position 1, oxime-linked to PK enhancer EEEGGG-Glu^γ-C13-COOH) chain 1: XLYSALANKCCHVGCTKRSLARFC chain 2: ASWMEEVIKLCGRELVRAQIAICGMSTWS peptide: EEEGGGE	0.31 nM
AQ1-KKSAGSAG-Glu^γ-C13-COOH (ligand, not fully specified; Glu^γ bonded by amide to fatty acid -C13-COOH; oxime-linked to pAcF of the A chain; pAcF (para-acetyl-L-phenylalanine) at position 1, oxime-linked to PK enhancer KKSAGSAG-Glu^γ-C13-COOH) chain 1: XLYSALANKCCHVGCTKRSLARFC chain 2: ASWMEEVIKLCGRELVRAQIAICGMSTWS peptide: KKSAGSAGE	0.27 nM
AQ1-DRDDRD-C13-COOH (ligand, linked to fatty acid -C13-COOH; oxime-linked to pAcF of the A chain; pAcF (para-acetyl-L-phenylalanine) at position 1, oxime-linked to PK enhancer DRDDRD-C13-COOH) chain 1: XLYSALANKCCHVGCTKRSLARFC chain 2: ASWMEEVIKLCGRELVRAQIAICGMSTWS peptide: DRDDRD	0.32 nM
AQ1-EEEGGG-Glu^γ-C17-COOH (ligand, not fully specified; Glu^γ bonded by amide to fatty acid -C17-COOH; oxime-linked to pAcF of the A chain; pAcF (para-acetyl-L-phenylalanine) at position 1, oxime-linked to PK enhancer EEEGGG-Glu^γ-C17-COOH) chain 1: XLYSALANKCCHVGCTKRSLARFC chain 2: ASWMEEVIKLCGRELVRAQIAICGMSTWS peptide: EEEGGGE	10.5 nM
WT-RLX (ligand, disulfide (positions not given here); ends not checked) chain 1: QLYSALANKCCHVGCTKRSLARFC chain 2: ASWMEEVIKLCGRELVRAQIAICGMSTWS	0.12 nM
AQ1-KKSGGSGGEE-Glu^γ-C13-COOH (ligand, not fully specified; Glu^γ bonded by amide to fatty acid -C13-COOH; oxime-linked to pAcF of the A chain; pAcF (para-acetyl-L-phenylalanine) at position 1, oxime-linked to PK enhancer KKSGGSGGEE-Glu^γ-C13-COOH) chain 1: XLYSALANKCCHVGCTKRSLARFC chain 2: ASWMEEVIKLCGRELVRAQIAICGMSTWS peptide: KKSGGSGGEEE	0.16 nM
AQ1-GETGSSGEGT-Glu^γ-C13-COOH (ligand, not fully specified; Glu^γ bonded by amide to fatty acid -C13-COOH; oxime-linked to pAcF of the A chain; pAcF (para-acetyl-L-phenylalanine) at position 1, oxime-linked to PK enhancer GETGSSGEGT-Glu^γ-C13-COOH) chain 1: XLYSALANKCCHVGCTKRSLARFC chain 2: ASWMEEVIKLCGRELVRAQIAICGMSTWS peptide: GETGSSGEGTE	0.65 nM
AQ1-EEEGGG-Glu^γ-C13-CH3 (ligand, not fully specified; Glu^γ bonded by amide to fatty acid -C13-CH3; oxime-linked to pAcF of the A chain; pAcF (para-acetyl-L-phenylalanine) at position 1, oxime-linked to PK enhancer EEEGGG-Glu^γ-C13-CH3) chain 1: XLYSALANKCCHVGCTKRSLARFC chain 2: ASWMEEVIKLCGRELVRAQIAICGMSTWS peptide: EEEGGGE	0.38 nM
AQ1-KKKGGG-Glu^γ-C13-COOH (ligand, not fully specified; Glu^γ bonded by amide to fatty acid -C13-COOH; oxime-linked to pAcF of the A chain; pAcF (para-acetyl-L-phenylalanine) at position 1, oxime-linked to PK enhancer KKKGGG-Glu^γ-C13-COOH) chain 1: XLYSALANKCCHVGCTKRSLARFC chain 2: ASWMEEVIKLCGRELVRAQIAICGMSTWS peptide: KKKGGGE	0.09 nM
AQ1-Sar-Sar-Sar-Sar-Ser-Glu^γ-C13-COOH (ligand, not fully specified; Sar = sarcosine (N-methylglycine); Glu^γ bonded by amide to fatty acid -C13-COOH; oxime-linked to pAcF of the A chain; pAcF (para-acetyl-L-phenylalanine) at position 1, oxime-linked to PK enhancer Sar-Sar-Sar-Sar-Ser-Glu^γ-C13-COOH) chain 1: XLYSALANKCCHVGCTKRSLARFC chain 2: ASWMEEVIKLCGRELVRAQIAICGMSTWS peptide: XXXXSE	0.32 nM
AQ1-Sar-Sar-Sar-Sar-Ser-Sar-Sar-Sar-Sar-Glu^γ-C13-COOH (ligand, not fully specified; Sar = sarcosine (N-methylglycine); Glu^γ bonded by amide to fatty acid -C13-COOH; oxime-linked to pAcF of the A chain; pAcF (para-acetyl-L-phenylalanine) at position 1, oxime-linked to PK enhancer Sar-Sar-Sar-Sar-Ser-Sar-Sar-Sar-Sar-Glu^γ-C13-COOH) chain 1: XLYSALANKCCHVGCTKRSLARFC chain 2: ASWMEEVIKLCGRELVRAQIAICGMSTWS peptide: XXXXSXXXXE	0.39 nM
AQ1-GGGGS-Glu^γ-C15-COOH (ligand, not fully specified; Glu^γ bonded by amide to fatty acid -C15-COOH; oxime-linked to pAcF of the A chain; pAcF (para-acetyl-L-phenylalanine) at position 1, oxime-linked to PK enhancer GGGGS-Glu^γ-C15-COOH) chain 1: XLYSALANKCCHVGCTKRSLARFC chain 2: ASWMEEVIKLCGRELVRAQIAICGMSTWS peptide: GGGGSE	1.55 nM
AQ1-GGGEEE-Glu^γ-C13-COOH (ligand, not fully specified; Glu^γ bonded by amide to fatty acid -C13-COOH; oxime-linked to pAcF of the A chain; pAcF (para-acetyl-L-phenylalanine) at position 1, oxime-linked to PK enhancer GGGEEE-Glu^γ-C13-COOH) chain 1: XLYSALANKCCHVGCTKRSLARFC chain 2: ASWMEEVIKLCGRELVRAQIAICGMSTWS peptide: GGGEEEE	0.22 nM
